The test system of data set [1] is human ankle cartilage explants. As to the kind of experiment: Quantitative uptake of fusion proteins in human ankle cartilage (uptake ratio). The format is in vitro ADME. As to conditions: 1 μM in PBS + 1% BSA. The procedure:
Cartilage explants were incubated in 250 μL of 1 μM solutions of different fusion proteins dissolved in 1×PBS+1% BSA for either 36 hours (FIG. 4A) or for 108 hours (FIG. 4B) (4.5 days). A group with free +9 GFP dissolved in 1×PBS+1% BSA (1 μM concentration) was included as a control for each of these two time points. An additional untreated control was included in these experiments. Cartilage explants were incubated in plain 1×PBS+1% BSA to account for and to correct for any autofluorescence effects. At the end of the incubation in the 1×PBS+1% BSA: The explants were transferred to a 10×PBS+1% BSA bath for 48 hours. The purpose of this was to desorb the GFPs taken up by the explants. The amount of GFPs left behind in the […] bath was quantified through fluorescence measurements. The desorption step in 10×PBS+1% BSA was followed by a second desorption step using fresh 10×PBS+1% BSA just to ensure any GFPs left in the explant after the 1st desorption come out. At the end of each desorption step, the fluorescence of the 10×PBS+1% BSA bath was measured. After the 2nd desorption step, the explants were digested in Proteinase K and their fluorescence was measured. The uptake ratio for the 36 hour and 108 hour experiments was calculated as (FIG. 4C): […]
Cartilage explants that had been equilibrated in culture medium post-harvest were transferred to sterile PBS and allowed to equilibrate for 1 hour before the start of the experiments. Sterile PBS solutions containing 1% bovine serum albumin (BSA) were prepared. Following this, 1 μM solutions of (+9GFP), (+9GFP)-(GGGGS)4-(IGF-1) (SEQ ID NO: 7), (+9GFP)-(EAAAK)3-(IGF-1) (SEQ ID NO: 8) and (+9GFP)-(GGGGS)3-(IGF-1) (SEQ ID NO: 9) were prepared. The BSA was included in the PBS to minimize loss of GFPs in the solution caused by non-specific binding to the plasticware. […] In contrast, use of polypropylene with 1% BSA enabled complete recovery of fluorescence.
At the end of the incubation period, cartilage explants were washed with PBS and transferred to a solution of 10×PBS+1% BSA for desorption. At the same time, the fluorescence of the absorption bath was measured using a plate reader (Synergy H1, Biotek Instruments Inc.) (excitation: 485 nm, emission: 528 nm). […] At the end of the desorption in 10×PBS+1% BSA, cartilage explants were weighed, and the fluorescence of the desorption bath was measured. This fluorescence measurement was used with a standard curve and the explant wet weights to calculate the concentration of GFP inside cartilage explants (mol/mg wet weight). The uptake ratio was calculated as the ratio of GFP concentration inside cartilage (mol/mg wet weight) to the final absorption bath concentration (mol/mL).

Data set [2] concerns human ankle cartilage explants treated with IL-1β. As to the kind of experiment: IL-1β cytokine challenge model, sGAG biosynthesis rate in human ankle cartilage explants. As to conditions: 100 pg/ml (Experiment 5A also 500 pg/ml and 1000 pg/ml) human IL-1β alone; days 6-8. The class given is cell-based. Here is the method:
Cartilage was harvested from the ankles of a donor (Collins Grade 1) and a donor (Collins Grade 1). Cartilage explants were equilibrated in culture media for 2 days after harvest. […] These were cut down to 1 mm thickness and allowed to equilibrate for a further 2 days before experiments were set up. Human IL-1β was used to induce osteoarthritis-like changes in cartilage. Experiments were set up to identify IL-1β doses at which 40 nM of free IGF-1 can rescue the IL-1β induced biosynthesis loss in cartilage. A dose response experiment in which single doses of (+9GFP)-(GGGGS)4-(IGF-1) (SEQ ID NO: 7) and (+9GFP)-(EAAAK)3-(IGF-1) (SEQ ID NO: 8) were added along with 100 pg/ml human IL-1β was also set up.
Experimental groups (N=8 to 10 cartilage explants in each group): Untreated control (Ctrl in FIG. 6A and FIG. 6B), 10 pg/mL human IL-1β (10 pg/ml IL-1b in FIG. 6A and FIG. 6B), 10 pg/mL human IL-1β+40 nM IGF-1 (10 pg/ml IL-1b+40 nM IGF-1 in FIG. 6A and FIG. 6B), 100 pg/mL human IL-1β (100 pg/ml IL-1b in FIG. 6A and FIG. 6B), 100 pg/mL human IL-1β+40 nM IGF-1 (100 pg/ml IL-1b+40 nM IGF-1 in FIG. 6A and FIG. 6B), 500 pg/mL human IL-1β (500 pg/ml IL-1b in FIG. 6A and […]), 500 pg/mL human IL-1β+40 nM IGF-1 (500 pg/ml IL-1b+40 nM IGF-1 in FIG. 6A and FIG. 6B), 1000 pg/mL human IL-1β (1 ng/ml IL-1b in FIG. 6A and FIG. 6B), 1000 pg/mL human IL-1β+40 nM IGF-1 (1 ng/ml IL-1b+40 nM IGF-1 in FIG. 6A and FIG. 6B). Media changes were performed every 2 days and the experiment was terminated after 8 days.
Chondrocyte biosynthesis rate (primarily aggrecan synthesis) was measured between days 6 and 8 of the experiment using a 35S-sulfate radiolabel. Statistics: 1-way ANOVA with post-hoc Tukey's HSD test.
This experiment was set up with cartilage explants from the donor ankle. Experimental groups (N=8 to 10 cartilage explants in each group): Untreated control (Ctrl in FIG. 6C), Continuous human IL-1β control (100 pg/ml dose added with every media change) (IL-1b in FIG. 6C), Continuous human IL-1β+continuous free IGF-1 control (100 pg/ml human IL-1β and 40 nM free IGF-1 dose added with every media change) (IL-1b+IGF1 FIG. 6C), Continuous human IL-1β+(+9GFP)-(GGGGS)4-(IGF-1) (SEQ ID NO: 7) 500 nM single dose (100 pg/ml human IL-1β added with every media change; Single 500 nM fusion protein dose added on Day 0) (IL-1b+0.5 μM Flex-1 in FIG. 6C), Continuous human IL-1β+(+9GFP)-(GGGGS)4-(IGF-1) (SEQ ID NO: 7) 1 μM single dose (100 pg/ml human IL-1β added with every media change; Single 1 μM fusion protein dose added on Day 0) (IL-1b+1 μM Flex-1 in FIG. 6C), Continuous human IL-1β+(+9GFP)-(EAAAK)3-(IGF-1) (SEQ ID NO: 8) 500 nM single dose (100 pg/ml human IL-1β added with every media change; Single 500 nM fusion protein dose added on Day 0), Continuous human IL-1β+(+9GFP)-(EAAAK)3-(IGF-1) (SEQ ID NO: 8) 1 μM single dose (100 pg/ml human IL-1β added with every media change; Single 1 μM fusion protein dose added on Day 0) (IL-1b+1 μM Rig-1 in FIG. 6C).
Preliminary dose response experiments were performed to test the effects of human IL-1β (PeproTech, Rocky Hill, NJ) on human ankle cartilage. Ankle cartilage explants from two different donors (equilibrated in culture medium post-harvest) were cultured in serum-free low glucose medium (same composition as equilibration medium) and treated with continuous IL-1β doses ranging from 10 pg/ml to 1 ng/ml for 8 days. The experiments also included groups of explants that were treated with 300 ng/ml free IGF-1 at each dose level of IL-1β. Based on the results of these experiments, 100 pg/ml IL-1β was chosen as the dose used for the fusion protein dose response experiments. In these experiments, ankle and knee cartilage explants (equilibrated in culture medium post-harvest) were treated continuously with IL-1β and received single doses of fusion proteins (ranging from 39.2 nM to 2 μM) at the start of the experiments. […]

The test system is the same in data set [3]. As to the kind of experiment: Cumulative sGAG loss and final sGAG content (DMMB) in IL-1β challenge, human ankle cartilage. The format is cell-based. The settings on record: 100 pg/ml IL-1β alone; 10-day time point. The procedure:
Preliminary dose response experiments were performed to test the effects of human IL-1β (PeproTech, Rocky Hill, NJ) on human ankle cartilage. Ankle cartilage explants from two different donors (equilibrated in culture medium post-harvest) were cultured in serum-free low glucose medium (same composition as equilibration medium) and treated with continuous IL-1β doses ranging from 10 pg/ml to 1 ng/ml for 8 days. The experiments also included groups of explants that were treated with 300 ng/ml free IGF-1 at each dose level of IL-1β. Based on the results of these experiments, 100 pg/ml IL-1β was chosen as the dose used for the fusion protein dose response experiments. In these experiments, ankle and knee cartilage explants (equilibrated in culture medium post-harvest) were treated continuously with IL-1β and received single doses of fusion proteins (ranging from 39.2 nM to 2 μM) at the start of the experiments. Media changes with IL-1β but without fusion proteins were performed once every 2 to 3 days. An untreated control group, a control with continuous IL-1β alone, and a control with IL-1β combined with continuous free IGF-1 (300 ng/ml or 39.2 nM) were included. Experiments were terminated at 7-day and 10-day timepoints, and the sGAG biosynthesis rate, metabolic rate, sGAG loss to culture medium and sGAG content of the explants were measured.
The metabolic rate of cartilage explants was measured using the Alamar Blue assay (ThermoFisher). Cartilage explants were incubated for 3 hours in a 1× solution of Alamar Blue dissolved in culture medium. At the end of the incubation period, the absorbance of the medium at 570 nm and 600 nm was measured using a microplate reader (Synergy H1 Hybrid Multi-Mode Microplate Reader, BioTek). These readings were used to calculate the percentage reduction of Alamar Blue, which is directly proportional to the explant metabolic rate. These values were first normalized by individual explant weights. Following this, the weight-normalized readings for the treatment groups were normalized by the weight-normalized mean value for the untreated controls. To measure the chondrocyte biosynthesis rate of sulfated glycosaminoglycans (sGAGs), cartilage explants were cultured in the presence of 10 μCi/mL 35S-sulfate radiolabel during the final two days of each experiment. […] To calculate the cumulative loss of GAGs from the explants, the amount of sGAG lost to the medium and that left behind in the explants at the end of the experiment were measured using the dimethylene blue (DMMB) dye binding assay (Farndale et al., Biochim Biophys Acta. 883(2):173-177 (1986)).

The values below come from patent publication US12653899B2, “Multi-targeted, tunable, sustained delivery of payloads to charged avascular tissues” (Massachusetts Institute of Technology, priority 2019, dated 2026).

Consider “(+9GFP)-(GGGGS)3-(IGF-1): fusion protein of +9 GFP and human IGF-1 with flexible (GGGGS)3 linker, SEQ ID NO: 9”, for which the “Uptake ratio (Mean)” value amounted to 13.1 in data set [1] (36 hr) and 24.2 in data set [1] (108 hr).
Regarding “IL-1β: human IL-1β (PeproTech), cytokine used to induce osteoarthritis-like biosynthesis loss in cartilage explants [reference compound]”, the “aggrecan biosynthesis compared to the untreated control” value in data set [2] is reported as “significant reduction”. The “cumulative sGAG loss compared to the untreated control” value in data set [3] is “higher cumulative sGAG loss”.
